# Assay results reported in EP1988168A1 (Max-Planck-Gesellschaft zur Förderung der Wissenschaften …, dated 2008).
# B1: Syn7002-RbcL (enzyme, Synechococcus sp. PCC7002, UniProt Q44176 1-470, looked up)
# chain: MQTKSAGFNAGVQDYRLTYYTPDYTPKDTDLLACFRMTPQPGVPPEECAAAVAAESSTGTWTTVWTDGLTDLDRYKGRCYNVEPVPGEDNQYFCFVAYPLDLFEEGSVTNVLTSLVGNVFGFKALRALRLEDIRFPVALIKTYQGPPHGITVERDLLNKYGRPLLGCTIKPKLGLSAKNYGRAVYECLRGGLDFTKDDENINSQPFMRWRDRFLFVQEAIEKSQAETNEVKGHYLNVTAGTCEEMLKRAEFAKEIGTPIIMHDFLTGGFTANTTLAKWCRDNGVLLHIHRAMHAVIDRQKNHGIHFRVLAKCLRLSGGDHLHSGTVVGKLEGDRAATLGFVDLMREDYVEEDRSRGVFFTQDYASLPGTMPVASGGIHVWHMPALVEIFGDDSCLQFGGGTLGHPWGNAPGATANRVALEACVQARNEGRSLAREGNDVLREAGKWSPELAAALDLWKEIKFEFDTVDTL
# notes: Stood in the assays as monomers, dimers, assembly intermediates or RbcL8 core complex, depending on the experiment; also called wildtype RbcL; RbcL8
# B2: AnaCA-RbcX (other, Anabaena sp. CA, UniProt Q44212 1-135, looked up)
# chain: MNLKQIAKDTAKTLQSYLTYQALRTVLAQLGETNPPLALWLHNFSAGKVQDGEKYIEELFLEKPDLALRIMTVREHIAEEIAEFLPEMVVTGIQQANMEKRRQHLERMTQVSLSHPSPESEQQQFSDPDWDNLAS
# notes: also called RbcX from Anabaena sp; CA
# B3: Syn7002-RbcL peptide 2, KEIKFEFDTVD (peptide)
# peptide: KEIKFEFDTVD
# B4: Syn7002-RbcX (other, Synechococcus sp. PCC7002, UniProt Q44177 1-134, looked up)
# chain: MEFKKVAKETAITLQSYLTYQAVRLISQQLSETNPGQAIWLGEFSKRHPIQESDLYLEAMMLENKELVLRILTVRENLAEGVLEFLPEMVLSQIKQSNGNHRRSLLERLTQVDSSSTDQTEPNPGESDTSEDSE
# notes: Assembly chaperone; also called RbcX of Synechococcus sp; PCC7002; non-tagged Syn7002-RbcX
# Assays:
# GroEL = target: T1, GroEL (E. coli, UniProt P0A6F5 2-548); test: in vitro translation, Native-PAGE, autoradiography
# T1 construct: also called E. coli GroEL; chaperonin
# T1 sequence (P0A6F5 2-548 limits assumed): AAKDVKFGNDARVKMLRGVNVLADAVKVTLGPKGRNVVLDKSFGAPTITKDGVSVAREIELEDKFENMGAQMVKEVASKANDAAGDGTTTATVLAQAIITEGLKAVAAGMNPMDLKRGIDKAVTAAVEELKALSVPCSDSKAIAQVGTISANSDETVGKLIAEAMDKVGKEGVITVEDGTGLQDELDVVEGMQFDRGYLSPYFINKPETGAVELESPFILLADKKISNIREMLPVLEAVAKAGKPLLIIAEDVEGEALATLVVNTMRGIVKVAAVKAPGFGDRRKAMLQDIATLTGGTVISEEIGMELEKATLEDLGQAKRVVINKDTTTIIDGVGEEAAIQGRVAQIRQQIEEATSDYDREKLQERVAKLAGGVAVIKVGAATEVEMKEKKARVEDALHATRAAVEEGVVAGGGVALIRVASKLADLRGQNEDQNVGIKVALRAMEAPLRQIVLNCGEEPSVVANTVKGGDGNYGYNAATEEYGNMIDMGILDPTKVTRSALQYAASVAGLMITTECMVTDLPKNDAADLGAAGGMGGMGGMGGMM
# [1] = target: T2, Syn7002-RbcL(F462A, F464A) (Synechococcus sp. PCC7002, UniProt Q44176 1-470); test: pulse-chase in vitro translation, Bis-Tris Native-PAGE, autoradiography
# T2 construct: also called RbcL(F462A/F464A) double mutant
# Syn7002-RbcX = target: B4; test: isothermal titration calorimetry, peptide titrated into RbcX dimer at 22°C
# AnaCA-RbcX = target: B2; test: as above
# Syn7002-RbcL(1-459) = Syn7002-RbcL(1-459) (Synechococcus sp. PCC7002, UniProt Q44176 1-459); test: coexpression in E. coli, Native-PAGE and immunoblot
# [2] = target: T2, Syn7002-RbcL(F462A, F464A); test: as above
# [3] = target: B3; test: comparison of the ITC affinities for the C-terminal RbcL peptide
# Syn7002-RbcL [4] = target: B1; test: co-immunoprecipitation with anti-FLAG antibody from E. coli extract
# Syn7002-RbcL [5] = target: B1; test: displacement of RbcL from anti-FLAG beads carrying the Syn7002-RbcL/Syn7002-RbcXFLAG complex, 15 min at room temperature, immunoblot; competitor Syn7002-RbcXFLAG
binder,measurement,setting,value
B1,binding result,GroEL,binds
"AnaCA-RbcXFLAG (other, Anabaena sp. CA, also called FLAG-tagged AnaCA-RbcX) MDYKDDDDKAGMNLKQIAKDTAKTLQSYLTYQALRTVLAQLGETNPPLALWLHNFSAGKVQDGEKYIEELFLEKPDLALRIMTVREHIAEEIAEFLPEMVVTGIQQANMEKRRQHLERMTQVSLSHPSPESEQQQFSDPDWDNLAS",binding result,[1],no binding (tested: 40 µM RbcX)
"EIKFEFD (also called peptide EIKFEFD) [Syn7002-RbcL peptide 1, EIKFEFD]",Kd,Syn7002-RbcX,~230 µM
same,Kd,AnaCA-RbcX,~60 µM
B2,binding result,Syn7002-RbcL(1-459),no binding
same,binding result,[2],no binding
same,fold higher affinity (against Syn7002-RbcX),[3],30 fold
"Syn7002-RbcXFLAG (other, Synechococcus sp. PCC7002, Coexpressed with RbcL in E. coli and pulled down with anti-FLAG M2 beads; also called N-terminally FLAG-tagged wildtype RbcX; FLAG-tagged Syn7002-RbcX) MDYKDDDDKAGMEFKKVAKETAITLQSYLTYQAVRLISQQLSETNPGQAIWLGEFSKRHPIQESDLYLEAMMLENKELVLRILTVRENLAEGVLEFLPEMVLSQIKQSNGNHRRSLLERLTQVDSSSTDQTEPNPGESDTSEDSE",binding result,Syn7002-RbcL [4],binds
B3,Kd,Syn7002-RbcX,~160 µM
same,Kd,AnaCA-RbcX,~5 µM
B4,IC50,Syn7002-RbcL [5],~1 µM
